Broadly, the Tm is the temperature at the midpoint of the melting transition. Usually Kd stands for the constant that tells how readily two partners part at equilibrium. A low value points to a tighter complex.

The target in test [1] is c-Jun (unmodified). As to the kind of experiment: thermal melting curve, mixture (FIG. 4).
Test [2] has as its target c-Myc bHLH protein (murine) (UniProt P01108). Kind of test: heterodimer with c-Myc, study of FIG. 9 (method not given).
In test [3] the target is bHLH MAX (unmodified Max). Kind of test: homodimer, study of FIG. 9 (method not given).
In test [4] the target is c-Jun (unmodified). As to the kind of experiment: from thermal melts, Kd at 37 °C (FIG. 4).
Target sequence in this assay (chain, from a related filing, as listed by the source): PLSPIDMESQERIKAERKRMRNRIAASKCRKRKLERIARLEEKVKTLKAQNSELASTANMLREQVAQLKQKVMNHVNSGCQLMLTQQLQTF

Chain of c-Fos (unmodified) (P01100 other isoform, or with tags, fused parts or gaps limits assumed): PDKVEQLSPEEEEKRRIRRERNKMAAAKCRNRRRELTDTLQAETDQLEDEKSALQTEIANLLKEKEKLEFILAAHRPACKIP
Chain of bHLH MAX (unmodified Max) (P61244 22-113): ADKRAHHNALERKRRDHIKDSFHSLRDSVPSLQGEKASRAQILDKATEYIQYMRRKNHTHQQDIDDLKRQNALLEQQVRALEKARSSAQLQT

Regarding “0heptad-Fos (c-Fos with the basic region deleted)”, the melting temperature (Tm) with c-Jun (unmodified) [1] amounted to 53 °C.

As to bHLH MAX (unmodified Max), the equilibrium dissociation constant (Kd) in test [2] was 30 nM; in test [3], 6000 nM.

With “c-Fos (unmodified) (from UniProt P01100 128-207)”, the midpoint of thermal melting (Tm) in the test with c-Jun (unmodified) [1] was 50 °C. Also, the Kd with c-Jun (unmodified) [4] turned out to be 200 nM.
